Measurements published in patent US20260193366A1 (APOGEE THERAPEUTICS, published 2026).

T1: hIL-4Rα on cells (human, UniProt P24394 26-825)
T1 sequence: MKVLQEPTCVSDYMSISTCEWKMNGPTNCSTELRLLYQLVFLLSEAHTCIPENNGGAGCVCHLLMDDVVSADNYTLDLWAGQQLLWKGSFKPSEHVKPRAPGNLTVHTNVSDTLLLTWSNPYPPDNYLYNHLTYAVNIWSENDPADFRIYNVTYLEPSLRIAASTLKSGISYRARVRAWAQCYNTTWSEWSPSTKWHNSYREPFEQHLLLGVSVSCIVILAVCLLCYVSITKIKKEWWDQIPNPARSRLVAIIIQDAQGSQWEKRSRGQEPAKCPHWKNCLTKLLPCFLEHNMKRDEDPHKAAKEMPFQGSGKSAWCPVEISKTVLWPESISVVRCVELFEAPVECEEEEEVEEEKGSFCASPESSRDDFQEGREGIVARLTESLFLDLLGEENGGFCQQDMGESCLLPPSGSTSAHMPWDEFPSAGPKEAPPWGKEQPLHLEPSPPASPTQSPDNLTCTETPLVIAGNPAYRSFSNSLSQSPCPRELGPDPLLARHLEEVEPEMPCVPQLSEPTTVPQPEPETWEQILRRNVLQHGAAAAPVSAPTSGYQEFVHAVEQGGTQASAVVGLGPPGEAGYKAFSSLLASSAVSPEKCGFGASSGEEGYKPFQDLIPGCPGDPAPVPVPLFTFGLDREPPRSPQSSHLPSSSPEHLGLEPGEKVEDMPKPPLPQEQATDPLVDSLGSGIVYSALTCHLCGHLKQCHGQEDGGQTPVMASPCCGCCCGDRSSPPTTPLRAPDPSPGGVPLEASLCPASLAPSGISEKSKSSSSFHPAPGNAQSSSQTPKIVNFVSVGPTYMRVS

T2: human IL-4Rα (human, UniProt P24394 26-232)
T2 construct: also called Hu IL-4Rα; hIL-4Rα
T2 sequence: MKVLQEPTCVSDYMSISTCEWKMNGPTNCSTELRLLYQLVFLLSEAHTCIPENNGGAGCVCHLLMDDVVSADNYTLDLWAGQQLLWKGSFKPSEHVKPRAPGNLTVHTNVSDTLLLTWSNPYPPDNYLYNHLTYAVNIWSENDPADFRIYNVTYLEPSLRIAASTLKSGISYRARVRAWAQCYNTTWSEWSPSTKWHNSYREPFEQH

T3: cynomolgus monkey IL-4Rα (cynomolgus monkey, UniProt P24394 26-231 (human entry), limits assumed)
T3 construct: also called Cyno IL-4Rα; cyIL-4Rα
T3 chain: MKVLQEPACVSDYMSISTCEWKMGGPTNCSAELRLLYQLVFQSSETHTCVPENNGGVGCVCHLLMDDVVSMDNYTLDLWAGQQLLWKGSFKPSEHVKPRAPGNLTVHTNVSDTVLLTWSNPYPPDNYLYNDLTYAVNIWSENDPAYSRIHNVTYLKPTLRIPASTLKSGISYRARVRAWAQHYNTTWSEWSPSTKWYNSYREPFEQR


Key:
[1] = molecular target: T1, hIL-4Rα on cells; experiment: cell-based or functional assay
[2] = molecular target: T1, hIL-4Rα on cells; experiment: cell-based or functional assay; remark: listed apart in the source
[3] = molecular target: T1, hIL-4Rα on cells; experiment: FACS on HEK293 cells, competitor biotin-hIL-13;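 as to Relative Blockade of IL-13 Binding IC50: stably transduced cells co-expressing both receptor chains, stained cold, with cell-bound signal read as mean fluorescence intensity by flow cytometry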
[4] = molecular target: T1, hIL-4Rα on cells; experiment: cell-based or functional assay; remark: listed apart in the source
[5] = molecular target: T1, hIL-4Rα on cells; experiment: FACS on HEK293 cells, competitor biotin-hIL-4;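 as to Relative Blockade of IL-4 Binding IC50: HEK293 cells stably co-expressing hIL-13Rα and hIL-4Rα, stained for 1 h at 4 °C, read-out as mean fluorescence intensity by flow cytometry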
Procedure: (§1) Briefly, HEK293 previously transduced to stably express both hIL-13Rα and hIL-4Rα were cultured and harvested. Cells were seeded at 200,000 cells in 100 uL per well. Cells were washed and the supernatant discarded. […] The cells were stained in this mixture at 4° C. for 1 hour. […] Cells were incubated 4° C. for 1 hour, protected from light. Cells were then washed and the MFI of cells in each well were recorded by FACS using a BD FACSCanto II. Subsequent data were analyzed using GraphPad Prism.

[6] = molecular target: T2, human IL-4Rα; experiment: SPR, Carterra LSA;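 also: antibodies captured on an anti-human Fc sensor chip, antigen injected at several concentrations, association and dissociation rates fitted with a 1:1 Langmuir model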
Procedure: (§2) Binding affinity (KD) of antibodies to human and cynomolgus monkey IL-4Rα was determined through surface plasmon resonance (SPR) using a Carterra LSA. Briefly, an HC30M sensor chip that was previously functionalized with a polyclonal mixture of goat anti-human Fc antibody and used to capture purified antibodies at a level between 100-1000 RLU. […] Regeneration of the chip between different concentrations of antigen was performed with 200 mM phosphoric acid and antibody was captured again as previously described. Association and dissociation rate constants were subsequently determined through fitting to a 1:1 Langmuir binding model using the Kinetics Software from Carterra from which a KD value was derived.

[7] = molecular target: T3, cynomolgus monkey IL-4Rα; experiment: SPR, Carterra LSA;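 also: antibodies captured on an anti-human Fc sensor chip, antigen injected at several concentrations, association and dissociation rates fitted with a 1:1 Langmuir model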
Procedure: as §2

[8] = molecular target: T2, human IL-4Rα; experiment: KinExA
Procedure: Binding affinity (KD) of exemplary antibodies to human IL-4Rα was determined using the Kinetic Exclusion Assay (KinExA). Briefly, antibody and recombinant human IL-4Rα were equilibrated in solution. […] Samples were incubated for a time period ranging from 3.5 hours to 340 hours, to fully reach equilibrium. Once samples reached equilibrium, azlactone beads previously coated with recombinant human IL-4Rα were used to capture any free antibody from the equilibrated solution. […] The KinExA 4000 instrument was used to capture fluorescent signal and convert to a voltage signal that is directly proportional to the amount of free antibody in all the equilibrated samples, allowing for the determination of the apparent affinity of the antibody.

[9] = molecular target: T1, hIL-4Rα on cells; experiment: cell-based or functional assay; remark: listed apart in the source
[10] = molecular target: T1, hIL-4Rα on cells; experiment: cell-based or functional assay; remark: listed apart in the source
[11] = molecular target: T1, hIL-4Rα on cells; experiment: cell-based or functional assay; remark: listed apart in the source
[12] = molecular target: T1, hIL-4Rα on cells; experiment: FACS on HEK293 cells, competitor biotin-hIL-4; remark: listed apart in the source;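 as to Relative Blockade of IL-4 Binding IC50: HEK293 cells stably co-expressing hIL-13Rα and hIL-4Rα, stained for 1 h at 4 °C, read-out as mean fluorescence intensity by flow cytometry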
Procedure: as §1
(§3) The values reflect absolute IC₅₀ measurements.

[13] = molecular target: T1, hIL-4Rα on cells; experiment: FACS on HEK293 cells, competitor biotin-hIL-13; remark: listed apart in the source;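 as to Relative Blockade of IL-13 Binding IC50: stably transduced cells co-expressing both receptor chains, stained cold, with cell-bound signal read as mean fluorescence intensity by flow cytometry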
Procedure: as §1, §3

Row | Binder | Relative Inhibition of IL-4 induced TF-1 Proliferation IC50 [1] | Relative Inhibition of IL-13 induced TF-1 Proliferation IC50 [1] | Relative Inhibition of IL-4 induced pSTAT6 IC50 [2] | Relative Inhibition of IL-13 induced pSTAT6 IC50 [2] | Relative Blockade of IL-13 Binding IC50 [3] | Relative Inhibition of IL-4 induced TARC IC50 [4] | Relative Inhibition of IL-13 induced TARC IC50 [4] | Relative Blockade of IL-4 Binding IC50 [5] | KD Relative to Dupilumab [6] | Kd [6] [pM] | KD Relative to Dupilumab [7] | Kd [7] [pM] | KD Relative to Dupilumab [8] | Kd [8] [pM] | also measured
1 | Construct 13 (mAb422) (antibody, IgG4, V domains shown, VH/VL only) VH: EVQLVESGGGLEQPGGSLRLSCAGSGFTFRDFAMTWVRQAPGKGLEWVSSVSGSGGNTYYADSVKGRFTISRDNSKNTLYLQMNSLRAEDTAVYYCAKDRLSVTVRPRYYGLDVWGQGTTVTVSS VL: DIVMTQSPLSLPVTPGEPASISCRSSQSVLYSIGYNYVDWYLQKSGQSPQLLIYLGNKRASGVPDRFSGSGSGTDFTLKISRVEAEDVGFYYCMQSLTSPYTFGQGTKLEIK | 0.675 relative to dupilumab | 0.794 relative to dupilumab | 0.415 relative to dupilumab | 0.824 relative to dupilumab | 0.882 relative to dupilumab | 0.507 relative to dupilumab | 1.01 relative to dupilumab | 1.02 relative to dupilumab | 0.65 | 7.37 | 0.02 | 12600 | 0.267 | 0.299 | –
2 | Construct 38 (mAb471) with IgG1 YTE LALA heavy chain constant region (antibody, V domains shown) VH: EVQLVESGGGLEQPGGSLRLSCAGSGFTFRDFAMTWVRQAPGKGLEWVSSISGSGGNIYYADSVKGRFTISRDNSKNTLYLQMNSLRAEDTAVYYCAKDRLSVTVRPRYYGLDVWGQGTTVTVSS VL: DIVMTQSPLSLPVTPGEPASISCRSSQSLLYSIGKNYVDWYLQKSGQSPQLLIYEGNKRASGVPDRFSGSGSGTDFTLKISRVEAEDVGFYYCMQSLTSPYTFGQGTKLEIK | – | – | – | – | – | – | – | – | – | – | – | – | – | – | Inhibition of IL-4 induced pSTAT6 IC50 [9]: 0.248 nM; Inhibition of IL-13 induced pSTAT6 IC50 [9]: 1.05 nM; Inhibition of IL-4 induced TF-1 Proliferation IC50 [10]: 52 pM; Inhibition of IL-13 induced TF-1 Proliferation IC50 [10]: 161 pM; Inhibition of IL-4 induced TARC IC50 [11]: 259 pM; Inhibition of IL-13 induced TARC IC50 [11]: 527 pM; IC50 [12]: 271 pM; IC50 [13]: 226 pM
3 | Construct 31 (mAb443) (antibody, IgG4, V domains shown, VH/VL only) VH: EVQLVESGGGLEQPGGSLRLSCAGSGFTFRDFAMTWVRQAPGKGLEWVSSISGSGGNIYYADSVKGRFTISRDNSKNTLYLQMNSLRAEDTAVYYCAKDRLSVTVRPRYYGLDVWGQGTTVTVSS VL: DIVMTQSPLSLPVTPGEPASISCRSSQSLLYSNGYNYLDWYLQKSGQSPQLLIYLGSNRASGVPDRFSGSGSGTDFTLKISRVEAEDVGFYYCMQALQAPYTFGQGTKLEIK | 1.25 relative to dupilumab | 1.24 relative to dupilumab | 1.23 relative to dupilumab | 1.61 relative to dupilumab | 0.964 relative to dupilumab | 1.37 relative to dupilumab | 0.703 relative to dupilumab | 1.01 relative to dupilumab | 0.73 | 8.29 | 0.67 | 421000 | 0.252 | 0.282 | –
4 | Construct 15 (mAb423) (antibody, IgG4, V domains shown, VH/VL only) VH: EVQLVESGGGLEQPGGSLRLSCAGSGFTFRDFAMTWVRQAPGKGLEWVSSISGSGGNIYYADSVKGRFTISRDNSKNTLYLQMNSLRAEDTAVYYCAKDRLSKTIRPRYYGLDVWGQGTTVTVSS VL: DIVMTQSPLSLPVTPGEPASISCTASQSLLYSIGYNYVDWYLQKSGQSPQLLIYLGNKRASGVPDRFSGSGSGTDFTLKISRVEAEDVGFYYCMQSLTSPYTFGQGTKLEIK | 0.281 relative to dupilumab | 0.71 relative to dupilumab | 0.285 relative to dupilumab | 0.468 relative to dupilumab | 0.876 relative to dupilumab | 0.453 relative to dupilumab | 0.35 relative to dupilumab | 0.66 relative to dupilumab | 1.21 | 13.7 | 0.04 | 24600 | 0.01 | 0.0109 | –
5 | Construct 38 (mAb471) (antibody, IgG4, V domains shown, VH/VL only) VH: EVQLVESGGGLEQPGGSLRLSCAGSGFTFRDFAMTWVRQAPGKGLEWVSSISGSGGNIYYADSVKGRFTISRDNSKNTLYLQMNSLRAEDTAVYYCAKDRLSVTVRPRYYGLDVWGQGTTVTVSS VL: DIVMTQSPLSLPVTPGEPASISCRSSQSLLYSIGKNYVDWYLQKSGQSPQLLIYEGNKRASGVPDRFSGSGSGTDFTLKISRVEAEDVGFYYCMQSLTSPYTFGQGTKLEIK | 1.04 relative to dupilumab | 1.2 relative to dupilumab | 0.723 relative to dupilumab | 1.56 relative to dupilumab | 0.996 relative to dupilumab | 1.17 relative to dupilumab | 1.63 relative to dupilumab | 0.981 relative to dupilumab | 0.52 | 5.89 | 0.4 | 249000 | 0.376 | 0.421 | –
6 | Construct 24 (mAb432) (antibody, IgG4, V domains shown, VH/VL only) VH: EVQLVESGGGLEQPGGSLRLSCAGSGFTFRDFAMTWVRQAPGKGLEWVSSISGSGGNIYYADSVKGRFTISRDNSKNTLYLQMNSLRAEDTAVYYCAKDRLSIAVRPRYYGLDVWGQGTTVTVSS VL: DIVMTQSPLSLPVTPGEPASISCTASQSLLYSIGKNYVDWYLQKSGQSPQLLIYLGNNRATGVPDRFSGSGSGTDFTLKISRVEAEDVGFYYCMQSLTSPYTFGQGTKLEIK | 1.03 relative to dupilumab | 0.693 relative to dupilumab | 0.629 relative to dupilumab | 0.586 relative to dupilumab | 0.825 relative to dupilumab | 0.445 relative to dupilumab | 0.594 relative to dupilumab | 0.973 relative to dupilumab | 0.79 | 8.91 | 0.11 | 66900 | 0.105 | 0.118 | –
